Experimental data published in paper PMC8914023.

Tests used:
[1] = target: F-actin (rabbit muscle actin filaments) (rabbit) (UniProt P68135); test: SPR
[2] = target: EhP3 (Entamoeba histolytica 14-3-3 protein isoform 3) (Entamoeba histolytica); test: SPR; Autolab ESPIRIT; EhP3 immobilised; EhActo flowed at increasing concentrations; 10 mM HEPES, 0.2 mM calcium acetate, 0.005% Triton-X100; 25°C
Sequence of EhP3 (Entamoeba histolytica 14-3-3 protein isoform 3) (Entamoeba histolytica) (C4M0F4 whole entry, canonical isoform): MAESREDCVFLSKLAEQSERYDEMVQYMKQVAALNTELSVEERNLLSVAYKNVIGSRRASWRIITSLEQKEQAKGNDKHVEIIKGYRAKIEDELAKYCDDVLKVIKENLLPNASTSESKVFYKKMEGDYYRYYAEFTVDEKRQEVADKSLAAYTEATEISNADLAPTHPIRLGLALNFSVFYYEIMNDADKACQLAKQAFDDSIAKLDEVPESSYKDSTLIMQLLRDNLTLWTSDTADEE

Entamoeba histolytica actophorin (EhActo) (from UniProt C4LVG4 1-138) (natural protein)
Kd [1]: 249 nM | Kd [2]: 1000 nM
